This is an account of results in paper PMC6629437 (Cell, 2019).

Changes are numbered by the printed parent chain. In names and notes the source's numbering stands.

Assay [1] has as its target T1, HA head domain of H1 A/Solomon Islands/3/2006 (Influenza A virus A/Solomon …, strain).
T1 chain: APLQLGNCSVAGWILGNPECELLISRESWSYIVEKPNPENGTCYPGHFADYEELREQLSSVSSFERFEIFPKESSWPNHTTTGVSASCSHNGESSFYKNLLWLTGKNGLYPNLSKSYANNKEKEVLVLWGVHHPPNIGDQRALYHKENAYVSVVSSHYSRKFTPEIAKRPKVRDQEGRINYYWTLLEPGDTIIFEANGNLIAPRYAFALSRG
In words: BLI.

The next assay concerns the target H1 HA of A/Texas/36/1991 (Influenza A virus A/Texas/36/1991 (H1N1), UniProt Q6WG02, strain). In words: ELISA. On the technique in general: ELISA stands for enzyme-linked immunosorbent assay.

B1: rFluA-20 Fab (Fab, V domains shown)
VH: QVQLEESGPGLVKPSETLSLTCSVSGVSVTSDIYYWTWIRQPPGKGLEWIGYIFYNGDTNYNPSLKSRVTMSIDTSKNEFSLRLTSVTAADTAVYFCARGTEDLGYCSSGSCPNHWGQGTLVTVSS
VL: DIVMTQSPSSLSASIGDRVTITCRPSQNIRSFLNWFQHKPGKAPKLLIYAASNLQSGVPSRFSGSGSGTEFTLTIRSLQPEDFATYYCQQSYNTPPTFGQGTKVEIK
As for B1, the binding result in assay [1] is recorded as “binds”.

B2: rFluA-20 IgG Y49A (L) (antibody, V domains shown)
VH: B1 VH
VL: B1 VL with Y49A
With B2, the binding result with H1 HA of A/Texas/36/1991 was “no binding (tested: 10 μg/mL)”.

B3: rFluA-20 IgG Q55A (L) (antibody, V domains shown)
VH: B1 VH
VL: B1 VL with Q55A
In the case of B3, the binding result with H1 HA of A/Texas/36/1991 is “binds”.

B4: rFluA-20 IgG D98A (H) (antibody, V domains shown)
VH: B1 VH with D103A
VL: B1 VL
As to B4, the binding result in the assay with H1 HA of A/Texas/36/1991 was “no binding (tested: 10 μg/mL)”.
